Test results reported in patent US20060058236A1, “Endogenously-formed conjugate of albumin” (priority 2004, published 2006).

Experiments:
human serum albumin = human serum albumin (Homo sapiens, UniProt P02768); assay: Incubation of Epo conjugates with human serum albumin, SDS-PAGE and anti-HSA immunoblot; type: in vitro ADME; conditions: 0.05% HSA, 21 hours at 37° C., no small molecule thiols
Experimental: mPEG-DTB-Epo (prepared as described above), mPEG-Epo, or Epo (0.2 mg/mL) was incubated with 0.05% human serum albumin (HSA) in 100 mM HEPES, 2 mM EDTA, pH 7.5 buffer for 21 hours at 37° C. […] The SDS-PAGE gel stained with SYPRO™ red protein stain is shown in FIG. 14A and an immunoblot probed with anti-HSA is shown in FIG. 14B.

[1] = Pharmacokinetic profile in rats dosed intravenously with 125I-labeled lysozyme or its PEG conjugates; type: in vivo, rat; conditions: intravenous
Experimental: Lysozyme (66 mg in […] in 0.1 M sodium phosphate buffer pH 7.3) was mixed with 605 μCi of Na^125I (ICN Biomedicals, Irvine, Calif.), in Iodo-Gen® coated tube (Pierce Chemical Company, Rockford, Ill.), and allowed to react for 1 hour at room temperature with 20 min intervals mixing. The iodination reaction was stopped by removing the free ^125I on a Sephadex G-25F gel filtration column (17 mL), and collecting the ^125I-lysozyme, which was then reacted with either mPEG-DTB-NPC and mPEG-NPC, and purified by cation exchange chromatography as described above.
Male Sprague-Dawley rats (250-330 g each, 3 animals per formulation per experiment) were dosed either by intravenous (via a lateral tail vein) or by subcutaneous (dorsally above the right rear leg) with ^125I labeled lysozyme or its PEG conjugates (0.35 mL, 0.4 mg protein/mL, 4.6×10^6 cpm/mL). Blood samples (0.4 mL) were collected via the retro-orbital sinus. All injections blood collections were performed while the animals were under inhaled anesthesia (isoflurane/O2). Samples were collected on heparin into polypropylene tubes and stored on ice for no longer than one hour before being pipetted in triplicate (0.100 mL) into fresh polypropylene tubes. Blood samples were collected at the following times after dosing (no single rat had blood collected at all of the following times): 30 sec, 15 min, 30 min and 1, 2, 3, 4, 6, 8, 24, 48, 72, 96, 120 and 168 hours post-dose. Note that the last 4 time points were added for the longer subcutaneous experiments. The samples were then counted for ^125I in a Packard™ 5000 gamma counter. The cpm counts were converted to concentration according to the specific activity of the samples.

Micrococcus luteus = Micrococcus luteus turbidity assay of active lysozyme after cleavage of the conjugate; type: biochemical
Experimental: A Micrococcus luteus turbidity assay was used to measure the amount of active lysozyme regenerated after cleavage of the conjugate.
At various time points, aliquots from the incubation vials were added to iodoacetamide to a final concentration of 20 mM, in order to stop the cleavage reaction. Samples were stored at 2-8° C. prior to analysis.
Micrococcus luteus stock solution was prepared at 0.3 mg/mL in 100 mM KPO4 pH 7. Lysozyme standards solutions were prepared at 1, 2, 4, 6, 8, and 10 μg/mL in PBS and a lysozyme standard curve was constructed (not shown). The samples from the cleavage reactions were diluted 1/10 in PBS. For the assay, 50 μL of standard, sample, or control were added per well to 96-well microtiter plates. To each well, 200 μL of Micrococcus luteus were added, and without delay, plates were read at 450 nm at 25° C. in a plate reader of a period of 10 min, in 30 second reading intervals.
The slopes (ΔA/min) were calculated for the first 5 minutes of the reading, and the corresponding lysozyme concentrations were extrapolated from the lysozyme standard curve.

bovine serum albumin = molecular target: T1, bovine serum albumin (Bos taurus, UniProt P02769); assay: Decomposition of PEG-DTB-lysozyme conjugates in 4% BSA solution, HPLC; type: in vitro ADME; conditions: room temperature, pH 7.4, HPLC after Q spin column
T1 construct: purchased Proliant (Ankeny, IA)
Experimental: (§1) Conjugates of PEG-DTB-lysozyme were prepared as described in Example 1A. The conjugates (100 μg/mL=0.066 mM) were incubated in 0.6 mM cysteine or with 4% BSA at room temperature (22-24° C.), in 10 mM phosphate buffer pH 7.4 containing 2 mM EDTA. Aliquots were taken at various time points, reactions were stopped with 20 mM iodoacetamide, and stored at 2-8° C. until analysis.
For the conjugates incubated with BSA, analysis of the samples was done by diluting the samples 1/10 in 10 mM PO4 pH 7.4, passing through Q spin columns (Vivascience) in order to trap the albumin and any of its related products, and then analyzing on the same CM column.
(§2) HPLC was performed with the following conditions: Column: TOSOH TSK CM-5PW 10 micron (7.5 mm×7.5 cm); Mobile phase: (A) 10 mM NaPO4 pH 7.4 and (B) 500 mM NaCl in 10 mM NaPO4 pH 7.4; Gradient: 5 min 100% A, 20 min 0% B to 100% B; Flow rate: 1 mL/min; Fluorescence detector: λex 295 nm, λem 360 nm (slit 30 nm); and injection volume, 100 μL.

[2] = Decomposition of PEG-DTB-lysozyme conjugates in cysteine solution, HPLC; type: in vitro ADME; conditions: 0.6 mM cysteine, room temperature, pH 7.4, HPLC
Experimental: as §1
For the conjugates incubated with cysteine, analysis of the aliquots was as done follows. The samples were diluted 1/10 in 10 mM NaPO4 pH 7.4 and analyzed on a carboxymethyl (CM) cation exchanger column.
as §2

T1 sequence (P02769 25-607): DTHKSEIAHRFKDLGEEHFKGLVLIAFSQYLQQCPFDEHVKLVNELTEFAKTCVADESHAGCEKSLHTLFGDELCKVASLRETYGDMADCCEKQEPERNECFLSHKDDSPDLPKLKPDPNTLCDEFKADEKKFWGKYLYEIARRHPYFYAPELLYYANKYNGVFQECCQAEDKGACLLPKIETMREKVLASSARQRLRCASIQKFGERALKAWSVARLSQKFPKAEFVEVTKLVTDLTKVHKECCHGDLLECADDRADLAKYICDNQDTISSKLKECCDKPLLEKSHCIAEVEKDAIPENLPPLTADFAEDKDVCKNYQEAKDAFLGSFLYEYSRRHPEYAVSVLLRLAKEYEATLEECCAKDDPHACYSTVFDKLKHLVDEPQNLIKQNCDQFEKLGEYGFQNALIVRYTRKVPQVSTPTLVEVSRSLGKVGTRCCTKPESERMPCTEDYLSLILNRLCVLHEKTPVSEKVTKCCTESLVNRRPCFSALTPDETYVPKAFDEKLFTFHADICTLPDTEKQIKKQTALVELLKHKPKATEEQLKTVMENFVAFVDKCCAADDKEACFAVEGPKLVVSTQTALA

Substance: Epo: Recombinant, human erythropoietin (EPO, EPREX)
- formation of albumin-Epo conjugate (human serum albumin): Neither Epo alone nor the noncleavable mPEG-Epo formed the albumin-Epo conjugate

Substance: lysozyme: lysozyme as a model therapeutic agent
- clearance from the blood stream / circulation lifetime ([1]; 24 hour period): cleared rapidly

Substance: mPEG5K-DTB-lysozyme: methoxypolyethylene glycol (5 kDa) joined to lysozyme through a methyl-dithiobenzyl urethane linkage
- active lysozyme regenerated from the cysteine cleavage (Micrococcus luteus; 0.6 mM cysteine, 37° C.): 74 µg/mL
- active lysozyme concentration after cleavage with BSA (Micrococcus luteus; 4% BSA, 37° C., after 24 hours): approximately 18 μg/mL
- active lysozyme after BSA cleavage as percent of that from cysteine cleavage (Micrococcus luteus; 24 hours): 24%
- release of lysozyme from the PEG in saline (Micrococcus luteus; saline at 37° C. for up to 24 hours): did not induce release of the lysozyme
- calculated half-life of remaining conjugate upon incubation in BSA (bovine serum albumin): 5 h
- calculated half-life of remaining conjugate upon incubation in cysteine [2]: 45 min

Substance: mPEG12K-DTB-lysozyme: methoxypolyethylene glycol (12 kDa) joined to lysozyme through a methyl-dithiobenzyl urethane linkage
- AUC values, cleavable vs noncleavable conjugate [1]: similar
- half-lives, cleavable vs noncleavable conjugate [1]: similar
- calculated half-life of remaining conjugate upon incubation in BSA (bovine serum albumin): 6 h
- calculated half-life of remaining conjugate upon incubation in cysteine [2]: 60 min
